{"source": "patent US11786605B2", "about": "“Site specific antibody-drug conjugates with peptide-containing linkers” (Mersana Therapeutics, Inc., priority 2020, dated 2023)", "key": {"NaPi2b-derived peptide": {"biological_target": "T1, NaPi2b-derived peptide (Homo sapiens, UniProt O95436)", "T1 construct": "Genscript); purchased Genscript", "T1 sequence (O95436 311-340 limits assumed)": "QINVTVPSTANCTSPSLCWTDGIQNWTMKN", "assay": "Binding kinetics to NaPi2b-derived peptide by Biolayer Interferometry", "conditions": "BLI, 25° C.", "experimental": "The binding kinetics of XMT-1535, Conjugate 7, and Conjugate 11 to immobilized NaPi2b-derived peptide antigen were determined by Biolayer Interferometry (BLI; Octet; ForteBio). Binding constants for XMT-1535, Conjugate 7, and Conjugate 11 were determined using standard Octet procedures (ForteBio). Biotinylated NaPi2b-derived peptide ([…]-biotin; Genscript) was immobilized to streptavidin octet sensors in kinetics buffer (10×). Sensors were then blocked in kinetics buffer (10×) with biocytin (50 μg/mL). Increasing concentrations of XMT-1535, Conjugate 7, or Conjugate 11 were then associated with immobilized peptide in kinetics buffer (10×)."}, "human FcRn": {"biological_target": "T2, human FcRn (Homo sapiens, UniProt P55899)", "T2 construct": "purchased Immunitrack", "T2 sequence (P55899 24-297 limits assumed)": "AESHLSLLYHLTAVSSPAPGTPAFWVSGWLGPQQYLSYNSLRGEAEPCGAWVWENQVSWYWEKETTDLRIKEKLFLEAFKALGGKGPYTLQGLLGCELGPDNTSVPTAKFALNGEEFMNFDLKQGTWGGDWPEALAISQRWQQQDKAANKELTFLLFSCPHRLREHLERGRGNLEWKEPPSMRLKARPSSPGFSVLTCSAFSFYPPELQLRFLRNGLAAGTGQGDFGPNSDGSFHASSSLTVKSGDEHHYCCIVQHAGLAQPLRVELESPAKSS", "T2 sequence (P61769 21-119 partner)": "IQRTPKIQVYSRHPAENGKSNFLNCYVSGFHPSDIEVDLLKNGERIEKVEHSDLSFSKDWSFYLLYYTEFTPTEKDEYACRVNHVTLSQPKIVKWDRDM", "assay": "Binding kinetics to FcRn by Biolayer Interferometry", "conditions": "BLI, 25° C., pH 6.0", "experimental": "(§1) The binding kinetics of the XMT-1535, Conjugate 7, and Conjugate 11 to Fc receptors (FcRn, FcγRI, FcγRIIA (H167), and FcγRIIIA (V176) were determined by Biolayer Interferometry (BLI; ForteBio Octet QKe) at 25° C. To test binding to Fcγ receptors, XMT-1535, Conjugate 7, and Conjugate 11 were diluted to 1 μg/mL in kinetics buffer (1×) and captured on anti-human Fab-CH1 (FAB2G) biosensors for 10 minutes. All dilutions and baseline measurements were done in kinetics buffer (1×). Baseline measurements were performed at […] before and after each capture step. Association measurements to the various Fc receptors were performed at 7 concentrations (from 1 μM to 100 nM, 2-fold serial dilutions) for 5 minutes. Dissociation was performed for 15 minutes. Binding constants were calculated with the global fit averages of the traces using a 1:1 model. Binding constants for XMT-1535, Conjugate 7, and Conjugate 11 to Fc receptors were determined using standard Octet procedures (ForteBio). Kinetic parameters were calculated using Octet software (ForteBio).\nTo test binding to FcRn receptor, association of XMT-1535, Conjugate 7, and Conjugate 11 to Fab-CH1 (FAB2G) biosensors was performed as described above. […] Association measurements to FcRn protein (Immunitrack) was measured at 7 concentrations (from 1 μM to 100 nM, 2-fold serial dilutions) for 5 minutes. […]"}, "FcγRI": {"biological_target": "FcγRI (Homo sapiens, UniProt P12314)", "sequence (P12314 16-374)": "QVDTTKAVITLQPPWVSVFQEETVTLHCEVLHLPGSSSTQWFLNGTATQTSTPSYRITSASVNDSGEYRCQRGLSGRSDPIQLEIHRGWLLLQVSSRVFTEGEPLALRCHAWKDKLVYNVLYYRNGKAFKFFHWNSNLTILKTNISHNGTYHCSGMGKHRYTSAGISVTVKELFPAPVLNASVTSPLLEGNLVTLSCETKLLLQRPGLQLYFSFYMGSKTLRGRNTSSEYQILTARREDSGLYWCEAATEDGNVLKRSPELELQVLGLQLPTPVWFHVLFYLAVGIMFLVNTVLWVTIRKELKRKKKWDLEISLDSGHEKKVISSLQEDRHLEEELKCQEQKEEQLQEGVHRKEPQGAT", "assay": "Binding kinetics to FcγRI by Biolayer Interferometry", "conditions": "BLI, 25° C.", "experimental": "as §1\n(§2) Tables IV-VII summarize the Kd (equilibrium dissociation constant), kon (rate of association), and koff (rate of dissociation) for human FcRn (Table IV), FcγRI (Table V), FcγRIIA H167 (Table VI), and FcγRIIIA […] (Table VII) for each test article."}, "FcγRIIA (H167)": {"biological_target": "T3, FcγRIIA (H167) (Homo sapiens, UniProt P12318)", "T3 sequence (P12318 34-217 limits assumed)": "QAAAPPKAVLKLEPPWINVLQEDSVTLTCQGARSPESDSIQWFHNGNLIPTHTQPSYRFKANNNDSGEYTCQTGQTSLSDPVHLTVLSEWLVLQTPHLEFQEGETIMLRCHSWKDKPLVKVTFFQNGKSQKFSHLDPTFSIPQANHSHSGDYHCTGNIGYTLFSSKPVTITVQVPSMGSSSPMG", "assay": "Binding kinetics to FcγRIIA by Biolayer Interferometry", "conditions": "FcγRIIA H167, BLI, 25° C.", "experimental": "as §1, §2"}, "FcγRIIIA (V176)": {"test_system": "FcγRIIIA (V176)", "assay": "Binding kinetics to FcγRIIIA by Biolayer Interferometry", "parameters": "species or system human", "conditions": "BLI, 25° C.", "experimental": "as §1, §2"}}, "data": [{"substance": "XMT-1535: anti-NaPi2b antibody", "values": [{"measurement": "koff, Mean Napi2b binding", "setting": "NaPi2b-derived peptide", "result": "1.27e-05", "unit": "s⁻¹"}, {"measurement": "kon, Mean Napi2b binding", "setting": "NaPi2b-derived peptide", "result": 170000, "unit": "M⁻¹ s⁻¹"}, {"measurement": "koff Mean", "setting": "human FcRn", "result": 0.000448, "unit": "s⁻¹"}, {"measurement": "kon Mean", "setting": "human FcRn", "result": 160000, "unit": "M⁻¹ s⁻¹"}, {"measurement": "koff Mean", "setting": "FcγRI", "result": 0.000192, "unit": "s⁻¹"}, {"measurement": "kon Mean", "setting": "FcγRI", "result": "1.28e+06", "unit": "M⁻¹ s⁻¹"}, {"measurement": "koff Mean", "setting": "FcγRIIA (H167)", "result": 0.308, "unit": "s⁻¹"}, {"measurement": "kon Mean", "setting": "FcγRIIA (H167)", "result": 175000, "unit": "M⁻¹ s⁻¹"}, {"measurement": "koff Mean", "setting": "FcγRIIIA (V176)", "result": 0.146, "unit": "s⁻¹"}, {"measurement": "kon Mean", "setting": "FcγRIIIA (V176)", "result": 216000, "unit": "M⁻¹ s⁻¹"}]}]}
